{"source": "patent US20240309103A1", "about": "(Regeneron, published 2024)", "key": {"[1]": {"target": "T1, mouse NPR1 extracellular domain expressed with a C-terminal myc-myc-hexahistidine (mNPR1-MMH) (mouse, UniProt P18293 29-469)", "assay": "SPR, mAb captured, 25 C", "method": "(§1) Equilibrium dissociation constant (KD) for different NPR1 reagents binding to purified anti-NPR1 monoclonal antibodies (mAbs) were determined using a real-time surface plasmon resonance based Biacore 4000 biosensor. All binding studies were performed in 10 mM HEPES, 150 mM NaCl, 3 mM EDTA, and 0.05% v/v Surfactant Tween-20, pH 7.4 (HBS-ET) running buffer at 25° C. and 37° C. The Biacore CM5 sensor chip surface was first derivatized by amine coupling with either mouse anti-human Fc specific mAb (GE Healthcare, #BR100839) or goat anti-human Fcy specific polyclonal antibody (Jackson ImmunoResearch Laboratories, #BR-1008-39) to capture anti-NPR1 mAbs."}, "[2]": {"target": "T2, human NPR1 extracellular domain expressed with a C-terminal mouse IgG2a (hNPR1-mFc) (human)", "T2 construct": "also called hNPR1-Fc; human NPR1 dimer", "T2 chain": "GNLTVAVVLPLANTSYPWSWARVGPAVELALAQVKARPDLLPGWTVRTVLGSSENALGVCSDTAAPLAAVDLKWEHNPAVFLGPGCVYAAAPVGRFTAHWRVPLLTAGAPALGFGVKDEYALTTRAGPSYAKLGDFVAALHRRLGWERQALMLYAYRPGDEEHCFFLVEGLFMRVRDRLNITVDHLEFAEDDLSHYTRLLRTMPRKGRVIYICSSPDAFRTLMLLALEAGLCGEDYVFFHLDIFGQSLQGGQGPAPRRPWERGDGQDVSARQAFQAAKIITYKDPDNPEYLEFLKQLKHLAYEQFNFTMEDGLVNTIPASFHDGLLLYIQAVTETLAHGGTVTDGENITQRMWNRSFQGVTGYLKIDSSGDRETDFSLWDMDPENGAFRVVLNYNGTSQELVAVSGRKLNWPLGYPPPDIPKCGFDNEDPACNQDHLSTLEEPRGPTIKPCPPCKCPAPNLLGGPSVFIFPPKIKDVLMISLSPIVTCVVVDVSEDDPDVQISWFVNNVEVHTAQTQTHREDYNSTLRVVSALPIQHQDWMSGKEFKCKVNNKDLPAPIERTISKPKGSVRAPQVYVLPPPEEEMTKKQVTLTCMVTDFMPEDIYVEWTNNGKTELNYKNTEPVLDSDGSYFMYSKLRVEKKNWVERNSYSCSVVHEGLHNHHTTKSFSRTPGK", "assay": "SPR, mAb captured, 25 C", "method": "as §1"}, "[3]": {"target": "T3, monkey NPR1 extracellular domain expressed with a C-terminal myc-myc-hexahistidine (mfNPR1-MMH) (monkey, UniProt P16066 33-473 (human entry))", "T3 construct": "also called monomeric monkey NPR1", "T3 chain": "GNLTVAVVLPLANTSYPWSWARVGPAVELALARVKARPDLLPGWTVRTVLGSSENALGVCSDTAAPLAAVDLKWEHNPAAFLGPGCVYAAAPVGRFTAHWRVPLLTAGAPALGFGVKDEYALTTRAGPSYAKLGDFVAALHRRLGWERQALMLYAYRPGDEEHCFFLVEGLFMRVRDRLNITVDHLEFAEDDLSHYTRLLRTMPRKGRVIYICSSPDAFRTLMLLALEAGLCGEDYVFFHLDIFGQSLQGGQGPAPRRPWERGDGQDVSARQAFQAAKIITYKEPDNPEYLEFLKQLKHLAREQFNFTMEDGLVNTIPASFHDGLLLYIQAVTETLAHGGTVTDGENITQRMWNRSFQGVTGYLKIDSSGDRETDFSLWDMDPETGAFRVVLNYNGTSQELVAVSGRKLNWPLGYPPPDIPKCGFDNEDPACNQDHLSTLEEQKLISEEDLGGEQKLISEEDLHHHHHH", "assay": "SPR, mAb captured, 25 C", "method": "as §1"}, "[4]": {"target": "T1, mouse NPR1 extracellular domain …", "assay": "SPR, mAb captured, 37 C", "method": "as §1"}, "[5]": {"target": "T2, human NPR1 extracellular domain …", "assay": "SPR, mAb captured, 37 C", "method": "as §1"}, "[6]": {"target": "T3, monkey NPR1 extracellular domain …", "assay": "SPR, mAb captured, 37 C", "method": "as §1"}, "[7]": {"target": "T4, mfNPR1-mFc (monkey)", "T4 construct": "also called dimeric monkey NPR1", "T4 chain": "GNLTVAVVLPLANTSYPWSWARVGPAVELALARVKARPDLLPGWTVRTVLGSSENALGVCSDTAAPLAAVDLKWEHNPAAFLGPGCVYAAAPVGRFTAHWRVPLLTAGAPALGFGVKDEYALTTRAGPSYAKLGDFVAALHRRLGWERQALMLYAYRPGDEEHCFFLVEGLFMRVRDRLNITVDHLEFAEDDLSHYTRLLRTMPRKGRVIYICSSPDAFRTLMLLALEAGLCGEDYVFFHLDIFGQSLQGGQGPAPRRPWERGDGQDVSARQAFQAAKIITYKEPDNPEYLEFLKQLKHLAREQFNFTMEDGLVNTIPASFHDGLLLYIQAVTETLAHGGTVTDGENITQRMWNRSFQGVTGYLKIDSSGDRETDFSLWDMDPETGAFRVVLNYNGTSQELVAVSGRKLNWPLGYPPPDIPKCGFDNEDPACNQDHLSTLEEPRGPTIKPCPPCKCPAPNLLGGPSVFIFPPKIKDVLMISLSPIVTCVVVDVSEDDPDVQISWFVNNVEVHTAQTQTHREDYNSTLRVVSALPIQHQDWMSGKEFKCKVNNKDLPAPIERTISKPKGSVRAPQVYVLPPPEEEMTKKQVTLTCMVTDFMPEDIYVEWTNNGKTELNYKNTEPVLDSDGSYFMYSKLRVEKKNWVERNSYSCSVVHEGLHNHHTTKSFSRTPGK", "assay": "SPR, mAb captured, 37C", "outline": "(§2)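 Equilibrium dissociation constants come from surface plasmon resonance, with the NPR1 reagent flowed over captured antibody. The capture layer was anti-human Fc (monoclonal or goat polyclonal), amine-coupled onto a CM5 chip. Buffer was HEPES-buffered saline with EDTA and 0.05% Tween-20, pH 7.4.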"}, "[8]": {"target": "T5, mfNPR1-mFc:hANP complex (monkey; human, UniProt P01160 124-151)", "T5 construct": "also called monkey NPR1 complexed to ANP", "assay": "SPR, mAb captured, 37C", "outline": "as §2"}, "[9]": {"target": "T6, hNPR1-mFc:hANP or hNPR1-hFc:hANP complex (human, UniProt P01160 124-151)", "T6 construct": "also called human NPR1 complexed to ANP", "assay": "SPR, mAb captured, 37C", "outline": "as §2"}, "[10]": {"target": "T7, hNPR1-mFc:hBNP complex (human, UniProt P16860 103-134)", "T7 construct": "also called human NPR1 complexed to BNP", "assay": "SPR, mAb captured, 37C", "outline": "as §2"}, "[11]": {"target": "T4, mfNPR1-mFc", "assay": "SPR, mAb captured, 25C", "outline": "as §2"}, "[12]": {"target": "T5, mfNPR1-mFc:hANP complex", "assay": "SPR, mAb captured, 25C", "outline": "as §2"}, "[13]": {"target": "T8, mfNPR1-mFc:hBNP complex (monkey; human, UniProt P16860 103-134)", "T8 construct": "also called monkey NPR1 complexed to BNP", "assay": "SPR, mAb captured, 25C", "outline": "as §2"}, "[14]": {"target": "T6, hNPR1-mFc:hANP or hNPR1-hFc:hANP complex", "assay": "SPR, mAb captured, 25C", "outline": "as §2"}, "[15]": {"target": "T7, hNPR1-mFc:hBNP complex", "assay": "SPR, mAb captured, 25C", "outline": "as §2"}}, "data": [{"binder": "mAb22810 (antibody, V domains shown) VH: EVQLVESGGGLVKPGGSLRLSCVVSGFTFRIYTMNWVRQAPGKGLEWVASISSSSSFINYADSLKGRFTISRDNAQNSLYLQMNSLRAEDTAIYYCARAAGNDVLPGRMDVWGQGTSVTVSS VL: EIVLTQSPGTLSLSPGERATLSCRASQSVSSNYLAWYQQKPGQVPSLLIYGASSRATGIPDRFSGSGSGTDFTLTITRLEPEDFAVYYCQQYGISPWTFGQGTKVEIK", "values": [{"measurement": "100 nM Ag Bound (RU)", "setting": "[1]", "result": -1, "unit": "RU"}, {"measurement": "100 nM Ag Bound (RU)", "setting": "[2]", "result": 4, "unit": "RU"}, {"measurement": "100 nM Ag Bound (RU)", "setting": "[3]", "result": 1, "unit": "RU"}, {"measurement": "binding result", "setting": "[3]", "result": "no binding (tested: 100 nM)"}, {"measurement": "100 nM Ag Bound (RU)", "setting": "[4]", "result": -2, "unit": "RU"}, {"measurement": "100 nM Ag Bound (RU)", "setting": "[5]", "result": 9, "unit": "RU"}, {"measurement": "100 nM Ag Bound (RU)", "setting": "[6]", "result": 0, "unit": "RU"}]}, {"binder": "mAb25508 (antibody, human IgG4, V domains shown) VH: EVQLVESGGGVVRPGGSLRLSCAASGFNVDDYGMSWVRQIPGKGLEWISGINWNGGRIYYADSMKGRITISRDNAKNSLYLQMNSLRAEDTALYHCVRDQWLVRGLDYWGQGTLVTVSS VL: DIQMTQSPSSLSASVGDRVTITCRASQGIYNYLAWFQQKPGKAPKSLIYAASSLQSGVPSKFSGSGSGTDFTLTISSLQPEDFATYYCQQYNTYPYTFGQGTKLEIK", "values": [{"measurement": "100 nM Ag Bound (RU)", "setting": "[7]", "result": 268, "unit": "RU"}, {"measurement": "Kd", "setting": "[7]", "result": 0.132, "unit": "nM"}, {"measurement": "koff", "setting": "[7]", "result": "8.36e-05", "unit": "s⁻¹"}, {"measurement": "kon", "setting": "[7]", "result": 634000, "unit": "M⁻¹ s⁻¹"}, {"measurement": "t½", "setting": "[7]", "result": 2.3, "unit": "h"}, {"measurement": "100 nM Ag Bound (RU)", "setting": "[8]", "result": 262, "unit": "RU"}, {"measurement": "Kd", "setting": "[8]", "result": 0.355, "unit": "nM"}, {"measurement": "koff", "setting": "[8]", "result": 0.000146, "unit": "s⁻¹"}, {"measurement": "kon", "setting": "[8]", "result": 411000, "unit": "M⁻¹ s⁻¹"}, {"measurement": "t½", "setting": "[8]", "result": 1.32, "unit": "h"}, {"measurement": "100 nM Ag Bound (RU)", "setting": "[9]", "result": 230, "unit": "RU"}, {"measurement": "Kd", "setting": "[9]", "result": 0.506, "unit": "nM"}, {"measurement": "koff", "setting": "[9]", "result": 0.000148, "unit": "s⁻¹"}, {"measurement": "kon", "setting": "[9]", "result": 293000, "unit": "M⁻¹ s⁻¹"}, {"measurement": "t½", "setting": "[9]", "result": 1.3, "unit": "h"}, {"measurement": "100 nM Ag Bound (RU)", "setting": "[10]", "result": 236, "unit": "RU"}, {"measurement": "Kd", "setting": "[10]", "result": 0.466, "unit": "nM"}, {"measurement": "koff", "setting": "[10]", "result": 0.000164, "unit": "s⁻¹"}, {"measurement": "kon", "setting": "[10]", "result": 352000, "unit": "M⁻¹ s⁻¹"}, {"measurement": "t½", "setting": "[10]", "result": 1.17, "unit": "h"}, {"measurement": "100 nM Ag Bound (RU)", "setting": "[11]", "result": 230, "unit": "RU"}, {"measurement": "Kd", "setting": "[11]", "result": 0.116, "unit": "nM"}, {"measurement": "koff", "setting": "[11]", "result": "5.98e-05", "unit": "s⁻¹"}, {"measurement": "kon", "setting": "[11]", "result": 515000, "unit": "M⁻¹ s⁻¹"}, {"measurement": "t½", "setting": "[11]", "result": 3.22, "unit": "h"}, {"measurement": "100 nM Ag Bound (RU)", "setting": "[12]", "result": 224, "unit": "RU"}, {"measurement": "Kd", "setting": "[12]", "result": 0.233, "unit": "nM"}, {"measurement": "koff", "setting": "[12]", "result": "7.32e-05", "unit": "s⁻¹"}, {"measurement": "kon", "setting": "[12]", "result": 314000, "unit": "M⁻¹ s⁻¹"}, {"measurement": "t½", "setting": "[12]", "result": 2.63, "unit": "h"}, {"measurement": "100 nM Ag Bound (RU)", "setting": "[13]", "result": 229, "unit": "RU"}, {"measurement": "Kd", "setting": "[13]", "result": 0.29, "unit": "nM"}, {"measurement": "koff", "setting": "[13]", "result": "8.91e-05", "unit": "s⁻¹"}, {"measurement": "kon", "setting": "[13]", "result": 308000, "unit": "M⁻¹ s⁻¹"}, {"measurement": "t½", "setting": "[13]", "result": 2.16, "unit": "h"}, {"measurement": "100 nM Ag Bound (RU)", "setting": "[14]", "result": 199, "unit": "RU"}, {"measurement": "Kd", "setting": "[14]", "result": 0.34, "unit": "nM"}, {"measurement": "koff", "setting": "[14]", "result": "8.97e-05", "unit": "s⁻¹"}, {"measurement": "kon", "setting": "[14]", "result": 264000, "unit": "M⁻¹ s⁻¹"}, {"measurement": "t½", "setting": "[14]", "result": 2.15, "unit": "h"}, {"measurement": "100 nM Ag Bound (RU)", "setting": "[15]", "result": 200, "unit": "RU"}, {"measurement": "Kd", "setting": "[15]", "result": 0.343, "unit": "nM"}, {"measurement": "koff", "setting": "[15]", "result": "8.57e-05", "unit": "s⁻¹"}, {"measurement": "kon", "setting": "[15]", "result": 250000, "unit": "M⁻¹ s⁻¹"}, {"measurement": "t½", "setting": "[15]", "result": 2.24, "unit": "h"}]}]}
